Target: recombinant His-p27 (full-length p27Kip1, C-terminal histidine tag) (human) (UniProt P46527)
Experiment: phage-ELISA, SH3-displaying phage on recombinant His-p27 (multivalent phage, which would enhance binding)

recombinant His-p27 (full-length p27Kip1, C-terminal histidine tag) (human), sequence (P46527 whole entry): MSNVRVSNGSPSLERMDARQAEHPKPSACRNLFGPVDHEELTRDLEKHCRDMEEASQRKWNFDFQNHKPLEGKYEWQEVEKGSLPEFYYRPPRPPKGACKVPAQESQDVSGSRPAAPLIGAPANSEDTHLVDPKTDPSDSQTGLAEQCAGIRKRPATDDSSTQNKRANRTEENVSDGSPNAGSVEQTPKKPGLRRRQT

Substance: SH3 domain of Brk displayed on phage (from UniProt Q13882 12-70)
- Kd: 0.25 µM
